Positions count from the first letter of the chain named.
T1: biotinylated human VEGF-C (human, UniProt P49767 112-227, limits assumed, biotin conjugated (site not stated))
T1 construct: Panning used the matured form from R&D Systems; also called biotin conjugated VEGF-C; biotinylated VEGF-C
T1 sequence: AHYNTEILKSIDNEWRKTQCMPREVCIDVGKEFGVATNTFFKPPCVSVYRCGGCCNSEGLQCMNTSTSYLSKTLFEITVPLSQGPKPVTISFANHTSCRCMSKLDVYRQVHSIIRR

T2: VEGF-C C137S
T2 construct: also called hVEGF-C C137S; human VEGF-C C137S
T2 VEGF-C: T1 sequence with C26S

T3: mature VEGF-C (R&D Systems) (human, UniProt P49767 103-227)
T3 construct: Bought from R&D Systems; also called human VEGF-C matured form (R&D systems)
T3 sequence: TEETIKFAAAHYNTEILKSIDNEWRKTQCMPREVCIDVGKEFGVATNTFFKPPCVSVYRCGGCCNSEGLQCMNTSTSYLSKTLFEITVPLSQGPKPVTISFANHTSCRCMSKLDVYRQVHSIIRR

T4: hVEGF-C (human, UniProt P49767)
T4 construct: unlabelled; also called human VEGF-C
T4 sequence (VEGF-C, looked up): T3 sequence

B1: anti-VEGF-C antibody mVC4.5 (mIgG2a) (antibody, V domains shown)
VH: EVQLVESGGGLVQPGGSLRLSCAASGFTFTDNWIHWVRQAPGKGLEWVAVISPYSGATYYADSVKGRFTISADTSKNTAYLQMNSLRAEDTAVYYCARDADYKYAFWAFDYWGQGTLVTVSS
VL: DIQMTQSPSSLSASVGDRVTITCRASQDVSTAVAWYQQKPGKAPKLLIYSASFLYSGVPSRFSGSGSGTDFTLTISSLQPEDFATYYCQQSYTTPPTFGQGTKVEIKR
notes: VC4.5 variable domains on a murine IgG2a backbone; also called VC4.5 murine IgG2a form; murine backbone anti-VEGF-C antibody
B2: anti-VEGF-C antibody hVC4.5 (hIgG1) (antibody, V domains shown)
VH: B1 VH
VL: B1 VL
notes: Tested as human IgG1; also called VC4.5 human IgG1 form; human backbone anti-VEGF-C antibody
B3: VC4.5Fab (Fab, V domains shown)
VH: B1 VH
VL: B1 VL
B4: anti-VEGF-C IgG VC4 (antibody, V domains shown)
VH: B1 VH with A49G, K103D, F106G
VL: DIQMTQSPSSLSASVGDRVTITCRASQDVSTAVAWYQQKPGKAPKLLIYSASFLYSGVPSRFSGSGSGTDFTLTISSLQPEDFATYYCQQSYTTPPTFGQGTKVEIK
notes: Only the six HVRs are tied to this clone; also called clone VC4
B5: VC4.4 (antibody, V domains shown)
VH: B1 VH with A49G, A100V, K103Y, F106W, F109L
VL: B4 VL
notes: also called clone VC4.4
B6: VC4.3 (antibody, V domains shown)
VH: B1 VH with D31Y, N32S, A49G, V50F, Y54G, S55V, A57Y, T58S, K103D, F106G
VL: B4 VL with S91T, T93R, T94I, P96Y
notes: also called clone VC4.3
B7: anti-VEGF-C IgG VC3 (antibody, V domains shown)
VH: EVQLVESGGGLVQPGGSLRLSCAASGFTFTNTDIHWVRQAPGKGLEWVAWISPSSGYTDYADSVKGRFTISADTSKNTAYLQMNSLRAEDTAVYYCARWRDYRFGGVMDYWGQGTLVTVSS
VL: B4 VL
notes: Only the six HVRs are tied to this clone; also called clone VC3
B8: anti-VEGF-C IgG VC1 (antibody, V domains shown)
VH: EVQLVESGGGLVQPGGSLRLSCAASGFTFSDSDIHWVRQAPGKGLEWVAWISPYSGYTDYADSVKGRFTISADTSKNTAYLQMNSLRAEDTAVYYCARLFEVIFDYWGQGTLVTVSS
VL: B4 VL
notes: Only the six HVRs are tied to this clone; also called clone VC1

Columns and labels:
[1] = target: T1, biotinylated human VEGF-C; experiment: receptor blocking ELISA: fixed biotin-VEGF-C incubated 2 h with serial dilutions of IgG, unbound VEGF-C captured on immobilized VEGFR3-Fc, streptavidin-HRP, OD450; blocked interaction VEGF-C/VEGFR3. The value stands in brackets after the curve's name in the legend box; the quantity is not named on the sheet, the value agrees with the midpoint of the curve
[2] = target: T2, VEGF-C C137S; experiment: SPR, Biacore (IgG1): human IgG captured on CM5 chip, VEGF-C injected, 1:1 Langmuir fit
[3] = target: T3, mature VEGF-C (R&D Systems); experiment: as above
[4] = target: T2, VEGF-C C137S; experiment: phage competition ELISA as in paragraph 556 with human VEGF-C C137S as antigen: phage-displayed clone VC4.5, soluble antigen varied, anti-M13-HRP, OD450
[5] = target: T4, hVEGF-C; experiment: phage competition ELISA: phage-displayed clone VC4.5 incubated with increasing soluble hVEGF-C, unbound phage captured on hVEGF-C coated plate, anti-M13-HRP, OD450
[6] = target: T2, VEGF-C C137S; experiment: competition ELISA: three-fold serial dilutions of VC4.5 IgG incubated 2 h on hVEGF-C C137S coated plate (5 ug/ml), then VC4.5 phage for 15 min, anti-M13-HRP, OD450 in %; competitor: VC4.5 phage
[7] = target: T3, mature VEGF-C (R&D Systems); experiment: SPR, Biacore (Fab), VC4.5 Fab protein; set-up for the Fab not described (paragraph 557 describes captured IgG)
[8] = target: T4, hVEGF-C; experiment: SPR, BIAcore-3000, 25 C: human IgG captured on CM5 chip (about 500 RU), human VEGF-C injected at 12.5-500 nM, 1:1 Langmuir fit
[9] = target: T4, hVEGF-C; experiment: phage competition ELISA: phage-displayed clone incubated with increasing soluble hVEGF-C, unbound phage captured on hVEGF-C coated plate, anti-M13-HRP, OD450
[10] = target: T4, hVEGF-C; experiment: as above; remark: listed apart in the source
[11] = target: T4, hVEGF-C; experiment: as above; remark: listed apart in the source

Binder | Kd [8] [nM] | koff [8] [s⁻¹] | kon [8] [M⁻¹ s⁻¹] | IC50 [9] [nM] | IC50 [10] [nM] | also measured
B1 |  |  |  |  |  | IC50 [1]: 0.74 nM
B2 |  |  |  |  |  | Kd [2]: 1.1 nM; Kd [3]: 140 nM; IC50 [4]: 5.4 nM; IC50 [5]: 1.7 nM; IC50 (read off the curve) [6]: ~7 nM; IC50 [1]: 0.54 nM
B3 |  |  |  |  |  | Kd [7]: 27.5 nM
B4 | 0.97 | 0.000263 | 271000 | 32 | 32 | 
B5 |  |  |  |  | 2.17 | 
B6 |  |  |  |  | 2.72 | 
B7 | 0.92 | 0.000541 | 588000 | 300 |  | 
B8 | 0.17 | 0.000189 | 1.07e+06 | 38 |  | IC50 [11]: 21.5 nM

Reference: patent US20110143428A1 (Genentech, published 2011)
